Measurements published in doi:10.1101/2023.12.19.572348.

Biological target: GRASP65-homologue protein 1 (Grh1) (S. cerevisiae) (UniProt Q04410)
Assay: circular dichroism + electron paramagnetic resonance

Sequence of UniProt Q04410 (Q04410 whole entry): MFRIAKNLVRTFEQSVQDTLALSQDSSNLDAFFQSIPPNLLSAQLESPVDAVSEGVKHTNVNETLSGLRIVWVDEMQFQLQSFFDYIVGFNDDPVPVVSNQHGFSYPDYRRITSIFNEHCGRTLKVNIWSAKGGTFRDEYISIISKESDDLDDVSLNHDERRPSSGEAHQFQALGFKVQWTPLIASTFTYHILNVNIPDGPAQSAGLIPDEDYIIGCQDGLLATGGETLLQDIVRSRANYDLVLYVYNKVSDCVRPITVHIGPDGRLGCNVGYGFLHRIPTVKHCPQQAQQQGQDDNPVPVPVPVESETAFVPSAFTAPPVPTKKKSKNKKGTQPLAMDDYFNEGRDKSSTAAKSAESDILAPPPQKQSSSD

In the case of “Acyl-CoA Binding Protein 1 (ACBP) (from UniProt P31787 1-87) (natural protein)”, the Kd is reported as > 1000 µM.
